Experiment [1] concerns the target T1, cynomolgus C5 (Macaca fascicularis) (cynomolgus (Macaca fascicularis), Beta and alpha chains are joined by disulfide bonds; the protein is a serum glycoprotein.).
T1 construct: also called cyno C5; cynoC5
T1 beta: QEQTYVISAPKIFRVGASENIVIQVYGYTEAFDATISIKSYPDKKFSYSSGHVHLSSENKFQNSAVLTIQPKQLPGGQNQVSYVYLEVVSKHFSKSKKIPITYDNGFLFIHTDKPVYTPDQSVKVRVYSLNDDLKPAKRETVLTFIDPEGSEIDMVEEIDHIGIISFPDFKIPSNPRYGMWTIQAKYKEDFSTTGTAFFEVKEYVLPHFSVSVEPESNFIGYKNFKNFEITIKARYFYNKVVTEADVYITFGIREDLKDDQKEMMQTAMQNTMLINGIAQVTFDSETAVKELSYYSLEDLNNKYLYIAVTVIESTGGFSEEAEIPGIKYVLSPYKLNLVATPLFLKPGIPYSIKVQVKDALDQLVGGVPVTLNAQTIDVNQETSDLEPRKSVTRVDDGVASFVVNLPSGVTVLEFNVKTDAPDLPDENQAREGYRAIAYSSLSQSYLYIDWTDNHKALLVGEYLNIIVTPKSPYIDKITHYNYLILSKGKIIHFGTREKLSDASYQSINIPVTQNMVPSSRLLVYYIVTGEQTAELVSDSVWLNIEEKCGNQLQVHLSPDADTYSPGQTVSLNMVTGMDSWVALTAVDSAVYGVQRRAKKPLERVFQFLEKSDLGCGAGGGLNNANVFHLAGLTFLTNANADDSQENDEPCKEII
T1 alpha: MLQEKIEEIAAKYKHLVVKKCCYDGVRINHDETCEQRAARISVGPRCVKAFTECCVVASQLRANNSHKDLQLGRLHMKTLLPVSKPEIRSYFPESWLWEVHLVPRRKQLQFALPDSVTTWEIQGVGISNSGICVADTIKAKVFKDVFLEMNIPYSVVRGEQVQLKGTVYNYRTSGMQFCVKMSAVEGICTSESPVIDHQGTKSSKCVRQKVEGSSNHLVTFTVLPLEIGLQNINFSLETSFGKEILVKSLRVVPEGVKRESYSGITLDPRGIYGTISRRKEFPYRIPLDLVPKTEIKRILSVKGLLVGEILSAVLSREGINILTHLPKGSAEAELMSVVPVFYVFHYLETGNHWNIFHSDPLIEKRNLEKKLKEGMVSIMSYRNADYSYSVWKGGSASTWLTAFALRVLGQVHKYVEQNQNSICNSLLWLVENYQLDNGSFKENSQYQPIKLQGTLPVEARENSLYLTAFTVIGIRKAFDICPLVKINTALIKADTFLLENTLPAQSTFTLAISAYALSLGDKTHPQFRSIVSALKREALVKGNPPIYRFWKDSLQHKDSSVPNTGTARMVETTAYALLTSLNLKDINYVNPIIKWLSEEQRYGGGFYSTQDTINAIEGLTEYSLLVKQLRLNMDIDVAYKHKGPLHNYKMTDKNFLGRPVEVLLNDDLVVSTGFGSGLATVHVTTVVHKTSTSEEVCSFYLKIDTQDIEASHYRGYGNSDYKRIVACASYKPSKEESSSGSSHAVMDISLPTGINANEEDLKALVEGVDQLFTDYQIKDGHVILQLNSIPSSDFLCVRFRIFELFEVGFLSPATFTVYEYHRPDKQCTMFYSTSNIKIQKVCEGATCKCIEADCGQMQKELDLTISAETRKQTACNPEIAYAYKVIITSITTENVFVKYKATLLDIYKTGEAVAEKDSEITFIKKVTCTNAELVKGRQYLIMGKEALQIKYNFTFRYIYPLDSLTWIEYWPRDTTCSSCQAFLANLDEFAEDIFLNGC
The experiment can be described thus: affinity chromatography.

The target of experiment [2] is T2, human complement C5 protein (human, UniProt P01031 19-673; P01031 678-1676, Beta and alpha chains are joined by disulfide bonds. C5 was biotinylated in some assays.). The experiment can be described thus: cell-based or functional assay.
In experiment [3] the target is T1, cynomolgus C5 (Macaca fascicularis). The experiment can be described thus: cell-based or functional assay.
Experiment [4] addresses T2, human complement C5 protein. The experiment can be described thus: solution ELISA: Fab with biotinylated antigen on NeutrAvidin plate, His-tag detection [huC5 panel]. The method, then:
(§1) Fabs were incubated with biotinylated antigen on a Neutravidin plate and detected via the histidin tag.

Experiment [5] addresses T1, cynomolgus C5 (Macaca fascicularis). The experiment can be described thus: solution ELISA: Fab with biotinylated antigen on NeutrAvidin plate, His-tag detection [cynoC5 panel]. The method, then:
as §1
For orientation: In an ELISA, binding on a coated surface is turned into a signal by an enzyme label.

Experiment [6] shares this target. The experiment can be described thus: SET (MSD), purified Fab. The method, then:
(§2) Streptavidin MSD plates were coated with 0.2 μg/ml biotinylated human C5 (30 μl/well) and blocked with 5% BSA in PBS. Subsequently the equilibrated samples were transferred to those plates (30 μl per well) and incubated for 20 min.

Experiment [7] deals with T2, human complement C5 protein. The experiment can be described thus: SET (MSD), purified Fab. The method, then:
as §2

Experiment [8] concerns the target T3, human complement C3 (human, UniProt P01024 23-667; P01024 672-1663).
T3 construct: Counter target in the ELISAs, coated directly or biotinylated; also called human C3
Kind of experiment: solution ELISA: Fab with biotinylated antigen on NeutrAvidin plate, His-tag detection [huC3 panel]. Here is the method: as §1

The target in experiment [9] is T2, human complement C5 protein. Kind of experiment: cell-based or functional assay. This is another data set of the same source.

Data on two molecules can be found in patent US20130064836A1 (Novartis, published 2013).

By EC50 is commonly meant the concentration needed to bring the measured effect to its halfway point. A higher EC50 goes with a need for much substance. One may read the Kd as a measure of binding affinity in units of concentration. Low readings indicate tighter binding, high ones weaker binding.

T3 sequence (P01024 23-667 limits assumed, chain 1 of 2): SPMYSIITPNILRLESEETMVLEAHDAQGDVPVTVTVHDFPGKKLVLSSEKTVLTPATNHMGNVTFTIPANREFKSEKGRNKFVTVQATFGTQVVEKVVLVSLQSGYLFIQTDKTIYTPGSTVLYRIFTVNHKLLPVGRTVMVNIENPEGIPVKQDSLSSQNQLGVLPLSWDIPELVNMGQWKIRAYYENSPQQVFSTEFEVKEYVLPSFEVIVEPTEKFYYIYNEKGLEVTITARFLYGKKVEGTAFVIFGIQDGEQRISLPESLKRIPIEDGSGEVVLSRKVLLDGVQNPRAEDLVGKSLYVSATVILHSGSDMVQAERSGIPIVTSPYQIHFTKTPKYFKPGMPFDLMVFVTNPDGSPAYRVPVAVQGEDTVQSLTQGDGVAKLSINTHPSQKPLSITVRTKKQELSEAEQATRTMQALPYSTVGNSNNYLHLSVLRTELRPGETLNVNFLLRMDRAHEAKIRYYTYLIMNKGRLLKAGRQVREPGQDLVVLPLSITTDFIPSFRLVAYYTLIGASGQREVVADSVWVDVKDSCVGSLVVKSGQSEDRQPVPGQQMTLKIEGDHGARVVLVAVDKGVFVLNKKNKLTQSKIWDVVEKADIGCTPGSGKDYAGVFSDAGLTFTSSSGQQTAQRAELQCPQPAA
T3 sequence (P01024 672-1663 limits assumed, chain 2 of 2): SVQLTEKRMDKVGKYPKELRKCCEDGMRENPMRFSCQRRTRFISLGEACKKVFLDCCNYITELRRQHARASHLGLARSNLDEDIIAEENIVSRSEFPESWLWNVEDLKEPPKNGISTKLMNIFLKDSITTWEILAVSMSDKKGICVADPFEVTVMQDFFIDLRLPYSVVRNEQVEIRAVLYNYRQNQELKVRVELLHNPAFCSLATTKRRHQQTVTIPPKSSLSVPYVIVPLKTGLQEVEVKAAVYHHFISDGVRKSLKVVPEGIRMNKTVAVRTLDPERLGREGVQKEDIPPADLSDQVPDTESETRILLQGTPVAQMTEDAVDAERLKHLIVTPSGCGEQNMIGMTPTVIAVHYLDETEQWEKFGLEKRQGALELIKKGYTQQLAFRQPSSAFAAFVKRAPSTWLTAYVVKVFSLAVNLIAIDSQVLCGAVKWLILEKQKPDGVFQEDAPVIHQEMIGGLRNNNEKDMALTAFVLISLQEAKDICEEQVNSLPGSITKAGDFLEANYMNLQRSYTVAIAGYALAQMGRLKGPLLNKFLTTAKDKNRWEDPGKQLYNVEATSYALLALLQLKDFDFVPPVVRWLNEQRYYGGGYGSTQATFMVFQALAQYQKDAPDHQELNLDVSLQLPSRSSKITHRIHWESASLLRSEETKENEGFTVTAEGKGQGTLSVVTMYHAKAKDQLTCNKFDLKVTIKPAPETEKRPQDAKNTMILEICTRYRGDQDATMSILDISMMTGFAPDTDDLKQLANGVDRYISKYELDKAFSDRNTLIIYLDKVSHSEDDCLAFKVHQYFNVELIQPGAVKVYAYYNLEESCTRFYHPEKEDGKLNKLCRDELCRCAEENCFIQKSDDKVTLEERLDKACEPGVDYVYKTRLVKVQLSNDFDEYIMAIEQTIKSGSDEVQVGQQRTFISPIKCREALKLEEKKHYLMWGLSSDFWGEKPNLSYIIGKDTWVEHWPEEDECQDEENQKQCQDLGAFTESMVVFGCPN

B1: MOR07086 hu IgG1 (antibody, V domains shown)
VH: QVQLVQSGAEVKKPGSSVKVSCKASGGTFSSYAISWVRQAPGQGLEWMGGIGPFFGTANYAQKFQGRVTITADESTSTAYMELSSLRSEDTAVYYCARDTPYFDYWGQGTLVTVSS
VL: DIELTQPPSVSVAPGQTARISCSGDSIPNYYVYWYQQKPGQAPVLVIYDDSNRPSGIPERFSGSNSGNTATLTISGTQAEDEADYYCQSFDSSLNAEVFGGGTKLTVL
As to B1, in [1], the binding result is recorded as “binds”.

B2: MOR07871 (Fab, V domains shown)
VH: QVQLVQSGAEVKKPGESLKISCKGSGYSFTSYYIGWVRQMPGKGLEWMGIIDPSDSHTTYSPSFQGQVTISADKSISTAYLQWSSLKASDTAMYYCARYMMRGFDHWGQGTLVTVSS
VL: DIELTQPPSVSVAPGQTARISCSGDSLGDYYAYWYQQKPGQAPVLVIYKDNNRPSGIPERFSGSNSGNTATLTISGTQAEDEADYYCQTWDTGESGVFGGGTKLTVLG
notes: light CS or A
For the molecule B2, in [2], the “IC50; hemolysis AP, 100 pM human C5 [panel j]” value stood at 36.6 pM. The “IC50; hemolysis AP, 100 pM cyno C5 in 20% human C5-depleted serum [panel a]” value in experiment [3] was 0.111 nM. Moreover, in [3], the “IC50; hemolysis AP, 100 pM cyno C5 in 20% human C5-depleted serum [panel f]” value is 0.137 nM. For the same molecule, the results for the EC50 in [4] and in experiment [5] were 0.849 nM and 0.617 nM, respectively. For the same molecule, the Kd in experiment [6] worked out at 0.004 nM; in experiment [7], 0.003 nM. Besides, the binding result in experiment [8] is given as “no binding (tested: 100 nM)”. In [9], the “IC50; hemolysis AP, 100 pM human C5 [panel f]” value amounted to 54.5 pM.
